Results reported in IntAct's records for PubMed 18996118.

B1: Membrane protein insertase YidC (Escherichia coli (strain K12)), P25714 (parent)
chain: MDSQRNLLVIALLFVSFMIWQAWEQDKNPQPQAQQTTQTTTTAAGSAADQGVPASGQGKLISVKTDVLDLTINTRGGDVEQALLPAYPKELNSTQPFQLLETSPQFIYQAQSGLTGRDGPDNPANGPRPLYNVEKDAYVLAEGQNELQVPMTYTDAAGNTFTKTFVLKRGDYAVNVNYNVQNAGEKPLEISSFGQLKQSITLPPHLDTGSSNFALHTFRGAAYSTPDEKYEKYKFDTIADNENLNISSKGGWVAMLQQYFATAWIPHNDGTNNFYTANLGNGIAAIGYKSQPVLVQPGQTGAMNSTLWVGPEIQDKMAAVAPHLDLTVDYGWLWFISQPLFKLLKWIHSFVGNWGFSIIIITFIVRGIMYPLTKAQYTSMAKMRMLQPKIQAMRERLGDDKQRISQEMMALYKAEKVNPLGGCFPLLIQMPIFLALYYMLMGSVELRQAPFALWIHDLSAQDPYYILPILMGVTMFFIQKMSPTTVTDPMQQKIMTFMPVIFTVFFLWFPSGLVLYYIVSNLVTIIQQQLIYRGLEKRGLHSREKKKS
partner: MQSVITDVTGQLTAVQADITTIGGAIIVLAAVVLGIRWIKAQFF
B2: Capsid protein (Pseudomonas phage Pf3), P03623 (parent)
chain: B1 partner
partner: B1 chain

Variants of: B1
Settings: with capsd_bppf3 VIII, P03623

Variant | effect of a mutation on the interaction
S16C | increasing interaction

Variants of: B1
Settings: with capsd_bppf3 VIII

Variant | effect of a mutation on the interaction
M430C | increasing interaction

Variants of: B1
Settings: with capsd_bppf3 VIII
Remark: another data set of the same source

Variant | effect of a mutation on the interaction
F17C | increasing interaction

Variants of: B2
Settings: with yidc_ecoli yidC, P25714

Variant | effect of a mutation on the interaction
I27C | increasing interaction

Variants of: B2
Settings: with yidc_ecoli yidC

Variant | effect of a mutation on the interaction
V28C | increasing interaction
